Measurements published in patent publication US20260139048A1 (NANJING LEGEND BIOTECH, published 2026).
Residue numbers refer to the chain shown, from its start.

T1: TIGIT on TIGIT-over expressing NFAT-Luc/Jurkat effector cells (GenScript reporter cell line) (UniProt Q495A1 22-244, limits assumed)
T1 sequence (looked up): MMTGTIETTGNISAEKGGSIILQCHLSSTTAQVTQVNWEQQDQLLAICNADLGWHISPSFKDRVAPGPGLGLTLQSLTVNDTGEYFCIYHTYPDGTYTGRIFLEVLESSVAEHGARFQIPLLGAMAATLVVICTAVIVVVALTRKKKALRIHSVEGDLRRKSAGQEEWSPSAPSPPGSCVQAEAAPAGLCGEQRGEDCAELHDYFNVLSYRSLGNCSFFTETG

T2: human TIGIT expressed on CHO-K1 cells (human, UniProt Q495A1 22-244)
T2 construct: whole, on cells; also called human TIGIT-CHO-K1 cells; human TIGIT over-expressing cell line
T2 sequence (looked up): T1 sequence (looked up)

T3: His-tagged human TIGIT (human, UniProt Q495A1 22-141)
T3 construct: SPR analyte; also called human TIGIT protein; not shown: His tag
T3 sequence: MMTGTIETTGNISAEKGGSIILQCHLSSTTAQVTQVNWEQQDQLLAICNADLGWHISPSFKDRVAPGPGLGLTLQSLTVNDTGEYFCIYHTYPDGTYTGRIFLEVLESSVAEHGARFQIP

B1: TIGIT-52 chimeric antibody (antibody, human IgG1, kappa, V domains shown)
VH: EVQLVESGGGLVEPGGSLTLSCVASGFTFSSFAMSWVRQTPEKRLEWVATISNGGSYTYYPDTVKGRFTISRDNAKNTLFLQMSSLRSEDTAMYYCARPYYGTTYGYYFDFWGQGTTLTVSS
VL: QIVLTQSPASLAVSLGQRATISCRASESVDRNGNSFMHWYQQKPGQPPKLLIYLASNLESGVPARFSGSGSRTDFTLTIDPVEADDAATYYCQQNNEDPLTFGAGTKLELKR
notes: Full-length chimeric IgG1 kappa
B2: TIGIT-18 chimeric antibody (antibody, human IgG1, kappa, V domains shown)
VH: QVQLQQPGAELVRPGASVKLSCKASGYSFTSYWMNWVKQRPGQGHEWIGMIHLSNSETRLNQNFLDKATLTVDKSSSTVYLQLSSPTSEDSAVYYCARERDYYGSSYFDYWGQGTTLTVSS
VL: DIVMTQSPASLVVSLGQRATISCRTSQSVSTSSYSYMHWYQQKPGQPPKLLIKNASNLESGVPARFSASGSGTDFTLNIHPVEEEDAATYYCQHSWEIPRTFGGGTKLEIKR
notes: as for B1
B3: TIGIT-6 chimeric antibody (antibody, human IgG1, kappa, V domains shown)
VH: QVQLKQSGPELVKPGASVKISCKTSGYTITENTMHWVKQSHGKSLEWIGGINPNNGGTSYNQQFKGKATLTVDKSSSTAYMELRSLTSEDSAVYYCTRSSYYRYDLDYWGQGTTVTVSS
VL: DIQMTQSHKFMSTSVGDRVSITCKASQDVKTALAWYQQKPGQSPKLLIYSASYRYTGVPDRFTGSGSGTDFTFTISSVQAEDLAVYYCHQHYTTPWTFGGGTKLEIKR
notes: also called 6VH + 6VL
B4: TIGIT-94 chimeric antibody (antibody, human IgG1, kappa, V domains shown)
VH: EVKLVESGGGLVKPGGSLKLSCAASGFTFSTYTMSWVRQTPEKRLEWVATISSGGTYTHYPDSVKGRFTISRDNAKNTLYLQMSSLKSEDTAMYYCTRWFLSLYAMDYWGQGTSVTVSS
VL: DIVMTQSTSSLSASLGDRVTISCRASQDINNFLNWYQQKPAGTVDLLIYYTSRLHSGVPSRFSGSGSGTDYSLTISNLDQEDIATYFCQQGNTFPYTFGGGTRLEIKR
notes: as for B1
B5: TIGIT-63 chimeric antibody (antibody, human IgG1, kappa, V domains shown)
VH: DVQLVESGGGLVQPGGSLSLSCAASGFTFTDYYMNWVRQPPGKALEWLGFIRNKANGYTTEYSASVKGRFTISRDNSQSILYLQMNALRAEDSATYYCARSTAWYFDVWGTGTTLTVSS
VL: DIQMTQSPASLSASVGGTVTITCRASEHIYSYLAWYQQKQGKSPQLLVYNAKTLAEGVPSRFSGSGSGTQFSLKINSLQPKDFGSYYCQHHYGNPLTFGAGTKLELKR
notes: as for B1
B6: TIGIT-87 chimeric antibody (antibody, human IgG1, kappa, V domains shown)
VH: EVKLVESGPELVKPGASMKISCKASGYSFTGYTMNWVKQSHGKNLEWIGLINPYNGGTSYNQKFKGKATLTVDKSSSTAYMELLSLTSEDSAVYYCARYANRFENWFAYWGQGTLVTVSS
VL: B5 VL with G17E, H28N, K81E, N94T, L96W, A100G, L106I
notes: as for B1
B7: 4.1D3 (anti-TIGIT positive control antibody) (antibody, V domains shown)
VH: QVQLQQSGPGLVKPSQTLSLTCAISGDSVSSNSAAWNWIRQSPSRGLEWLGKTYYRFKWYSDYAVSVKGRITINPDTSKNQFSLQLNSVTPEDTAVFYCTRESTTYDLLAGPFDYWGQGTLVTVSS
VL: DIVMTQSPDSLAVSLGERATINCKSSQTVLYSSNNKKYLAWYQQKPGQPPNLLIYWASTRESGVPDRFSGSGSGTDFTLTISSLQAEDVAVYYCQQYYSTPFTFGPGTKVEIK
B8: TIGIT-15 chimeric antibody (antibody, human IgG1, kappa, V domains shown)
VH: DVQLVESGGGLVQPGGSLKLSCAASGFTFSSYGMSWVRQTPDRRLELVATINNNGGSTYYPDSVKGRFTISRDNARNTLYLQMSSLKSEDTAMYYCATRTGTEILGFDFWGQGTTLTVSS
VL: DIVLTQSHKFMSTSLGDRVSITCKASQDVSTAVAWYQQKPGQSPKLLIYWASSRHTGVPDRFTGSRSGPDYTLTISSVQAEDLALYYCQQQYSTPWTFGGGTKLEIKR
notes: as for B1
B9: reshaped TIGIT-3 antibody 3VH3 + 3VL1.M1 (antibody, V domains shown)
VH: EVQLVESGGGLVQPGGSLRLSCAASGFTFSSYGMSWVRQAPGKGLELVATIKSDGGSTNLPDSVKGRFTISRDNSKNTLYLQMNSLRAEDTAVYYCVRGYFDYWGQGTTVTVSS
VL: DIQMTQSPSSLSASVGDRVTITCRASQDIKTALAWYQQKPGKVPKLLIYWSSTRHTGVPSRFSGSGSGTDFTLTISSLQPEDVATYYCQQYYSTPYTFGGGTKVEIK
notes: Full-length IgG, tested as HEK293 supernatant
B10: reshaped TIGIT-3 antibody 3VH3 + 3VL1.M4 (antibody, V domains shown)
VH: B9 VH
VL: B9 VL with R24K, I29V, L33V, S51A, H55Q, T56S
notes: as for B9

biological target: T1, TIGIT on TIGIT-over expressing …; experiment: cell-based or functional assay

Bottom (RLU) | EC50 [nM] | Top (RLU) | Binder
11800 | > 100 | 14200 | B1
10400 | 31.3 | 50600 | B2
10900 | 9.42 | 49800 | B3
9960 | 92.8 | 59800 | B4
11200 | 46.8 | 28700 | B5
9300 | > 100 | 17000 | B6
12600 | 9.28 | 44200 | B7
7720 | 17.4 | 51900 | B8

biological target: T1, TIGIT on TIGIT-over expressing …; experiment: cell-based or functional assay; remark: another data set of the same source

Bottom (RLU) | EC50 [nM] | Top (RLU) | Binder
51400 | 4.9 | 139000 | B3
55300 | 9.69 | 142000 | B7

biological target: T2, human TIGIT expressed on CHO-K1 cells; experiment: flow cytometry on CHO-K1 cells expressing human TIGIT

EC50 [nM] | Binder
8.43 | B1
0.76 | B2
0.42 | B3
0.51 | B4
1.12 | B5
0.4 | B6
0.95 | B7
1.03 | B8

biological target: T2, human TIGIT expressed on CHO-K1 cells; experiment: as above; remark: another data set of the same source

EC50 [nM] | Binder
0.581 | B3
1.05 | B7

biological target: T3, His-tagged human TIGIT; experiment: SPR experiment 3, IgG from HEK293 supernatant captured

Kd [nM] | koff [s⁻¹] | kon [M⁻¹ s⁻¹] | Binder
17 | 0.0038 | 230000 | B9
55 | 0.012 | 230000 | B10

biological target: T3, His-tagged human TIGIT; experiment: SPR experiment 1, IgG from HEK293 supernatant captured

Kd [nM] | koff [s⁻¹] | kon [M⁻¹ s⁻¹] | Binder
0.094 | 5.3e-05 | 560000 | B3

biological target: T3, His-tagged human TIGIT; experiment: SPR experiment 2, IgG from HEK293 supernatant captured

Kd [nM] | koff [s⁻¹] | kon [M⁻¹ s⁻¹] | Binder
0.29 | 0.00012 | 420000 | B3

biological target: T4, cynomolgus TIGIT expressed on CHO-K1 cells (cynomolgus, UniProt A0A7N9I9V4 89-312); experiment: flow cytometry on CHO-K1 cells expressing cynomolgus TIGIT
T4 construct: whole, on cells; also called cynomolgus TIGIT over-expressing cell line
T4 sequence (A0A7N9I9V4 entry or part of it): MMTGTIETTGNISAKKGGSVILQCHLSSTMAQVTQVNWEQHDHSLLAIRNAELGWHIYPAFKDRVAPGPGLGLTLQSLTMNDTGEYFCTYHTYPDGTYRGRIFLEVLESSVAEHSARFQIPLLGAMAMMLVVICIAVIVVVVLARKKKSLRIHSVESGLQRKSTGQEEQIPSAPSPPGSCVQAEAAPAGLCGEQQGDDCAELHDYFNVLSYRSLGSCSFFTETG

EC50 [nM] | Binder
7.68 | B1
1.45 | B2
2.64 | B3
0.74 | B4
1.92 | B5
0.81 | B6
2.77 | B7
3.53 | B8

biological target: T4, cynomolgus TIGIT expressed on CHO-K1 …; experiment: as above; remark: another data set of the same source

EC50 [nM] | Binder
2.31 | B3
2.35 | B7

biological target: T3, His-tagged human TIGIT; experiment: SPR (Biacore T200), antibody captured, His-tagged TIGIT analyte

Kd [nM] | koff [s⁻¹] | kon [M⁻¹ s⁻¹] | Binder
0.17 | 7.4e-05 | 440000 | B1
0.22 | 9.5e-05 | 430000 | B2
0.24 | 0.00013 | 560000 | B3
1.6 | 0.0019 | 1.2e+06 | B4
2.5 | 0.00062 | 250000 | B5
0.63 | 0.0012 | 2e+06 | B6
0.065 | 4.3e-05 | 660000 | B7
0.19 | 0.00016 | 860000 | B8

biological target: T5, His-tagged cynomolgus TIGIT (cynomolgus, UniProt A0A7N9I9V4 89-209); experiment: as above
T5 construct: SPR analyte; also called cynomolgus TIGIT protein; not shown: His tag
T5 sequence (A0A7N9I9V4 entry or part of it): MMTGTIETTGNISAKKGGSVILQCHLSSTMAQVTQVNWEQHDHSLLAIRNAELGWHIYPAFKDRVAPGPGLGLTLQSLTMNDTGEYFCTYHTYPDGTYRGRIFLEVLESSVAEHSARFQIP

Kd [nM] | koff [s⁻¹] | kon [M⁻¹ s⁻¹] | Binder
0.28 | 6.1e-05 | 220000 | B1
4.4 | 0.0011 | 260000 | B2
54 | 0.0049 | 90000 | B3
7.7 | 0.0075 | 980000 | B4
3.4 | 0.00049 | 140000 | B5
47 | 0.063 | 1.3e+06 | B6
5.4 | 0.0011 | 200000 | B7
1.1 | 0.0002 | 180000 | B8

biological target: T3, His-tagged human TIGIT; experiment: as above; remark: another data set of the same source

Kd [nM] | koff [s⁻¹] | kon [M⁻¹ s⁻¹] | Binder
0.17 | 9e-05 | 520000 | B3
0.055 | 3.5e-05 | 630000 | B7

biological target: T5, His-tagged cynomolgus TIGIT; experiment: as above; remark: another data set of the same source

Kd [nM] | koff [s⁻¹] | kon [M⁻¹ s⁻¹] | Binder
39 | 0.0046 | 120000 | B3
3 | 0.00083 | 270000 | B7

biological target: T2, human TIGIT expressed on CHO-K1 cells; experiment: flow cytometry competition: biotinylated CD155-Fc on human TIGIT-CHO-K1 cells

IC50 [nM] | Binder
13.9 | B1
1.23 | B2
0.57 | B3
0.72 | B4
2.32 | B5
0.53 | B6
1.4 | B7
1.07 | B8

biological target: T2, human TIGIT expressed on CHO-K1 cells; experiment: as above; remark: another data set of the same source

IC50 [nM] | Binder
0.566 | B3
0.95 | B7
